Data reported in patent US20220056111A1 (YUROGEN BIOSYSTEMS, published 2022).

Experiments:
HcoV-229E S protein = molecular target: T1, HcoV-229E S protein (HcoV-229E, UniProt P15423 16-1115); assay: direct ELISA, OD450
T1 sequence: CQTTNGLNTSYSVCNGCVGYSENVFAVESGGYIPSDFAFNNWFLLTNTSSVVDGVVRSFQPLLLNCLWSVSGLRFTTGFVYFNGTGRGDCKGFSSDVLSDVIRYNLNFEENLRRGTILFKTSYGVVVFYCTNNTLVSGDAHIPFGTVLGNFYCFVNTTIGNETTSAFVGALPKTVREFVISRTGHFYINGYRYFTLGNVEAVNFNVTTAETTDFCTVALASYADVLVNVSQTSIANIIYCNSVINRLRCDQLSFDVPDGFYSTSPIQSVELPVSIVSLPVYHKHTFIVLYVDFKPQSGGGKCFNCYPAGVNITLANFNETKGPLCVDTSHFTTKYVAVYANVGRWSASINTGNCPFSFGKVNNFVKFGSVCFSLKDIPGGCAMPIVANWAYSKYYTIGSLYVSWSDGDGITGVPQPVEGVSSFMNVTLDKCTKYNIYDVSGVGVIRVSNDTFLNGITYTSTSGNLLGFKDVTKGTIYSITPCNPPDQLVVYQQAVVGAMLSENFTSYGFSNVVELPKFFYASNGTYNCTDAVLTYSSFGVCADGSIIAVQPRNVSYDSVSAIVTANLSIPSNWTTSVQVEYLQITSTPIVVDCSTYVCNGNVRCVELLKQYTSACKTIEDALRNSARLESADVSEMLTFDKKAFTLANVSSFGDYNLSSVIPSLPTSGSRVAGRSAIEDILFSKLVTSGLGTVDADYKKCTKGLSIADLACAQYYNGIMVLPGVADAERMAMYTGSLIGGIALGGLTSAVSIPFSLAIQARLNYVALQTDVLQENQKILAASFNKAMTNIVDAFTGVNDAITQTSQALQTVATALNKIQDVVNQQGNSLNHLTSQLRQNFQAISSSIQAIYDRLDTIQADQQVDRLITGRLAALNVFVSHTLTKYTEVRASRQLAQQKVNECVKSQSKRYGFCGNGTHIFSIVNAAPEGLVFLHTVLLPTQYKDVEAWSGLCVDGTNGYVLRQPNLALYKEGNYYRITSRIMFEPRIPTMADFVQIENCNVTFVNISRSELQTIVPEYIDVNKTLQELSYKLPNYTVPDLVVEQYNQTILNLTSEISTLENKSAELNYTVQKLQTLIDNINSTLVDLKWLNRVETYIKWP

HcoV-OC43 S protein = molecular target: T2, HcoV-OC43 S protein (HcoV-OC43, UniProt P36334 14-1297); assay: direct ELISA, OD450
T2 sequence: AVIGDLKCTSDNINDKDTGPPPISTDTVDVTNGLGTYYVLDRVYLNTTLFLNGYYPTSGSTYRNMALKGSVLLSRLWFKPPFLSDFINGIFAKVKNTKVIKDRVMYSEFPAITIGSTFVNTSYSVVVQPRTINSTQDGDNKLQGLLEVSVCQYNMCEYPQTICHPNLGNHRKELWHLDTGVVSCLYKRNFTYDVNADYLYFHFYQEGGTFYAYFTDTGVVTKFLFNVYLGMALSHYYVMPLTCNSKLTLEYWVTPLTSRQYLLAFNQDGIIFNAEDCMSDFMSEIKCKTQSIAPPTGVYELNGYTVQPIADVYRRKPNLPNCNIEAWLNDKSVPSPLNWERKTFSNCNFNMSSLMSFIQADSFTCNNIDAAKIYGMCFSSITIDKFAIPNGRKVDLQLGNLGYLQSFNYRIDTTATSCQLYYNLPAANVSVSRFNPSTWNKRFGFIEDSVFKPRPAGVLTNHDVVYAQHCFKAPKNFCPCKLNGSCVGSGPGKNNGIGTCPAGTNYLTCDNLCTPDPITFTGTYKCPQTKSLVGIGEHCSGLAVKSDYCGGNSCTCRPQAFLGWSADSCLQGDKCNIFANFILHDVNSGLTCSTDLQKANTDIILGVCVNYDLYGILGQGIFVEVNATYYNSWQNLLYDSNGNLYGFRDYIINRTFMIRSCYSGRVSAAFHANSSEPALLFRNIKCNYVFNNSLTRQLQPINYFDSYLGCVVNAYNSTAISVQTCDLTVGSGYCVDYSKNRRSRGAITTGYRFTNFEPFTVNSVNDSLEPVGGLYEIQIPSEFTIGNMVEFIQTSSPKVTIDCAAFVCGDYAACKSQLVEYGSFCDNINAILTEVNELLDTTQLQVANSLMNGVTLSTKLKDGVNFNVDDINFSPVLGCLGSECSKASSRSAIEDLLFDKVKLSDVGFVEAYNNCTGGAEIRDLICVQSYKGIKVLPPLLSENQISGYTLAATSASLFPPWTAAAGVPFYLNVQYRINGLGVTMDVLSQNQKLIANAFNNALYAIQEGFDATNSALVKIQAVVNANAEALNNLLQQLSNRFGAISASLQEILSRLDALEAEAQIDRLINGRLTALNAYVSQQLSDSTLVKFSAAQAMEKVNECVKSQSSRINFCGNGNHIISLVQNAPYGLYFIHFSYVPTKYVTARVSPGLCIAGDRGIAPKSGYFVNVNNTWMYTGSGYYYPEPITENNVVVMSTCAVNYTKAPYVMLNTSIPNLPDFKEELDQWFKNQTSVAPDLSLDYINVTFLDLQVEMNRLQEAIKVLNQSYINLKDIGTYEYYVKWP

HcoV-NL63 S protein = molecular target: T3, HcoV-NL63 S protein (HcoV-NL63, UniProt Q6Q1S2 19-1296); assay: direct ELISA, OD450
T3 construct: also called hCov-NL63 S1
T3 sequence: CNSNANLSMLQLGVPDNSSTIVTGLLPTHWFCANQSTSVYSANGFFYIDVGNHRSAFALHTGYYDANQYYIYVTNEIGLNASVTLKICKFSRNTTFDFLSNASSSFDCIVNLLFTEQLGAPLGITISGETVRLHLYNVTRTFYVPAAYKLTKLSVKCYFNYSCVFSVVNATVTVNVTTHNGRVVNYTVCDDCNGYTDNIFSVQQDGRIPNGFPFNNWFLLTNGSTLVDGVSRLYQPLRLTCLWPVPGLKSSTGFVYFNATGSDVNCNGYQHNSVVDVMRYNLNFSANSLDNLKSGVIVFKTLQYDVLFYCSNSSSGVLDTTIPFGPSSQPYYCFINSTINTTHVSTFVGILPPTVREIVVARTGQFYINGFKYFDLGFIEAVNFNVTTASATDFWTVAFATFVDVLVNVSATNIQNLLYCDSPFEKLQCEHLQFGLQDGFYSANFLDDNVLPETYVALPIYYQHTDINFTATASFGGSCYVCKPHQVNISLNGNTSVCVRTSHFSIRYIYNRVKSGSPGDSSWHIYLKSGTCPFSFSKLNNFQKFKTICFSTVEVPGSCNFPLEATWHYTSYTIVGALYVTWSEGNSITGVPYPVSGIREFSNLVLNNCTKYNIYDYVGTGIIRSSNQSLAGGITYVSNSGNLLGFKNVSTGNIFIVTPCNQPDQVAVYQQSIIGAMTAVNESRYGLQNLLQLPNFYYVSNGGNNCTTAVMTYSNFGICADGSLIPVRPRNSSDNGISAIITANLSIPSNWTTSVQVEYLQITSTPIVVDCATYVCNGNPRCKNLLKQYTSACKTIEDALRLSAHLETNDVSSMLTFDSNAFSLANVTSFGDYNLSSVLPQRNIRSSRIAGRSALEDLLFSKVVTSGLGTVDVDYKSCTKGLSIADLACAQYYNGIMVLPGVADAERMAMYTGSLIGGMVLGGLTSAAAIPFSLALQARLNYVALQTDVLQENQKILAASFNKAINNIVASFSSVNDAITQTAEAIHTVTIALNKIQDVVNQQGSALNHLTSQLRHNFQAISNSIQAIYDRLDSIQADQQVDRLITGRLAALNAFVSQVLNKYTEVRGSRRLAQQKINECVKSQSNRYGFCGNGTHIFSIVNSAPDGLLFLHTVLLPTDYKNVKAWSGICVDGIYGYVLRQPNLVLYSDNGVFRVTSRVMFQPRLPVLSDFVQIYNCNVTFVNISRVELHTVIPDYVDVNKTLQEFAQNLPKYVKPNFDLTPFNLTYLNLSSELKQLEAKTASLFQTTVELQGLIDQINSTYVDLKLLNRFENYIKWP

[1] = molecular target: SARS-CoV-2 Spike S1 protein (SARS-CoV-2, UniProt P0DTC2 16-685)
[2] = molecular target: RBD (receptor binding domain) of the SARS-CoV-2 S1 (SARS-CoV-2, UniProt P0DTC2 319-541)

Binder	binding result (HcoV-229E S protein)	binding result (HcoV-OC43 S protein)	binding result (HcoV-NL63 S protein)	Kd [1] [nM]	koff [1] [s⁻¹]	kon [1] [M⁻¹ s⁻¹]	EC50 (read off the curve) [2] [ng/mL]
rabbit monoclonal antibody 5E1 against the SARS-CoV-2 S1 (antibody, V domains shown) VH: QSVEESGGRLVTPGTPLTLTCTVSGIDLSSYAMGWVRQAPGKGLEYIGIIYISGLTYYASWAKGRFTISKTSTTVDLKIPSPTTEDTATYFCARGEYNSHSHYLLWGPGTLVTVSS VL: AYDMTQTPSSVSEPVGGTVSIKCQASQNIYSNLAWYQQKPGQRPKLLIYDASQLASGVPSRFKGSGSGTEYTLTISGVECADAATYYCQQGFESSDIFNVFGGGTEVVVKG	no binding	no binding	no binding	≤ 0.138	≤ 1e-05	72300	–
rabbit monoclonal antibody 9H1 against the SARS-CoV-2 S1 (antibody, V domains shown) VH: QSVEESGGRLVTPGTPLTLTCTVSGFSLSRYAMSWVRQAPGKGLEWIGIIVDSGHTAYASWAKGRFTISRTSTTVDLKMTSLTTEDTATYFCARETGGGAFYVFEFWGPGTVVTVSS VL: AQVLTQTPSSVSAAVGGTVTINCQASEDIYDNLVWYQQKPGQPPKLLIYDASTLAFGVSSRFRGSGSGTHFTLTMRDVQCDDAATYYCQGEFSCSSGDCTAFGGGTEVVVKG	no binding	no binding	no binding	0.769	0.00025	325000	~20
